The data set has as its system MS2 coat protein. Briefly: apparent KD of MS2 coat protein; designed switch direction (-1 OFF switch, 1 ON switch): 1; higher = weaker reporter binding. In outline: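 Three titration conditions were used: no input, 200 uM small-molecule ligand, and an oligonucleotide input. In each, SNAP-549-labelled MS2 coat protein was raised from 0.7 or 1.5 nM, doubling, to 3 µM over designed RNA switches transcribed on Illumina chips by stalled E. coli RNA polymerase. Curve fits of normalised cluster fluorescence gave values whose per-design median over clusters is the apparent KD.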

The mark [1] stands for this setting: input ligand: microRNA oligo, concentration not stated.
Setting [2] is: Eterna round: R95, input ligand: microRNA oligo, concentration not stated.
Where [3] appears, read: Eterna round: R95, input ligand: FMN 200 uM.
Setting [4] is: Eterna round: R95, input ligand: none.

As to “GCUCGUAUCACAACCAACAUGAGGAUCACCCAUGUAUGUUGGUAGGAUAUCUAUAUUAAGGAUAUAGAGAAGGGCCGAACGAGC [SameState NG3 #12] (Eterna round: R96, puzzle: Same State NG 3)”, the “apparent KD of MS2 coat protein” value (input ligand: FMN 200 uM) is 53.7 nM, the “apparent KD of MS2 coat protein” value under setting [1] is 59.7 nM and the “apparent KD of MS2 coat protein” value (input ligand: none) worked out at 82.3 nM.

Turning to “GCUGCAAGGGCAGGAUAUGGGUUCAGAGCGGAAGUGCGCUUUGAUACAUGAGGAUCACCCAUGUCCCAGAAGGGCCCAUGCGGC [Arredibi] (Eterna round: R96, puzzle: Same State NG 2)”, the “apparent KD of MS2 coat protein” value came to 19.1 nM (input ligand: FMN 200 uM), 78.4 nM under setting [1] and 113 nM (input ligand: none).

Consider “GCUUCACAUGAGGAUCACCCAUGUCUUCGGAGUCGAGGAUAUGGUAACUGUAAACAGUUGCCAGAAGGCGAGGAGC [SS1 - Son of Teenbexe v9] (Eterna round: R96, puzzle: Same State 1)”, for which the “apparent KD of MS2 coat protein” value was determined as 48.8 nM (input ligand: FMN 200 uM), 55.3 nM under setting [1] and 66 nM (input ligand: none).

With “GCUUCACAUGAGGAUCACCCAUGUCUUCGGAGUCGAGGAUAUGGUAACUGUAAACAGUUGCCAGAAGGCGAGGAGC [SS1 - Son of Teenbexe v9] (puzzle: Same State 1)”, under setting [2], the “apparent KD of MS2 coat protein” value was 54.6 nM.

Consider “GGAAUAUUCACAGGAUAUGAGUUGUAAAGUGGAUCAGAAGGGUGGGUGUUUUGCACGGUGUGUUACAUGAGGAUCACCCAUGUU [SameState NG1 #23] (Eterna round: R96, puzzle: Same State NG 1)”, for which the “apparent KD of MS2 coat protein” value is, setting by setting: (input ligand: FMN 200 uM) 82.4 nM; under setting [1], 241 nM; (input ligand: none) 418 nM.

As for “GGAAUAUUUACAGGAUAUGAGUUGUAAAGUCGAUCAGAAGGGUAGAUGUCUUACACGGUGUGUUACAUGAGGAUCACCCAUGUU [SameState NG1 #19] (Eterna round: R96, puzzle: Same State NG 1)”, the “apparent KD of MS2 coat protein” value was determined as 169 nM (input ligand: FMN 200 uM), 160 nM under setting [1] and 218 nM (input ligand: none).

As to “GGAAUAUUUACAGGAUAUGAUUUGUAAAUUCGAUCAGAAGGGUGGAUGUCUUACACGGUUUGUUACAUGAGGAUCACCCAUGUC [SameState NG1 #12] (Eterna round: R96, puzzle: Same State NG 1)”, the “apparent KD of MS2 coat protein” value by setting is: (input ligand: FMN 200 uM) 452 nM; under setting [1], 253 nM; (input ligand: none) 376 nM.

Regarding “GGACGUCAUCUCAAUAAUUAAACAUGAGGAUCACCCAUGUCACAGGAUAUGGAUCCUAAUUGGAUCCAGAAGGGUGUGACGUCC [Fiskers NG3ss - 40] (Eterna round: R96, puzzle: Same State NG 3)”, the “apparent KD of MS2 coat protein” value reads like this: (input ligand: FMN 200 uM) 54.3 nM; under setting [1], 56 nM; (input ligand: none) 66.1 nM.

As for “GGACGUCGAUCUCCUACUUAAACAUGAGGAUCACCCAUGUCACAGGAUAUGAGUCCGAUUAGGACUCAGAAGGGUGCGACGUCC [Fiskers NG3ss - 51] (Eterna round: R96, puzzle: Same State NG 3)”, the “apparent KD of MS2 coat protein” value (input ligand: FMN 200 uM) was found to be 14 nM, the “apparent KD of MS2 coat protein” value under setting [1] is 12.3 nM and the “apparent KD of MS2 coat protein” value (input ligand: none) stood at 18.6 nM.

Take “GGAGCCAAGGCAGGAUAUUCAUAUAAAUAAACAUGAGGAUCACCCAUGUAGGCCAGAAGGCCUUGGGAGAAGGGCCAUGGCUCG [Xeonanis - 13 mod6] (Eterna round: R96, puzzle: Same State NG 2)”: the “apparent KD of MS2 coat protein” value is, setting by setting: (input ligand: FMN 200 uM) 19.4 nM; under setting [1], 69.8 nM; (input ligand: none) 121 nM.

Consider “GGAGCCAGCACCGAGGAUAUUCAUAUUAAAACAUGAGGAUCACCCAUGUAGGCCAGAAGGCCUUGGGAGAAGGCGGACUGGCUCG [Xeonanis - 11] (Eterna round: R96, puzzle: Same State 2)”, for which the “apparent KD of MS2 coat protein” value runs as follows: (input ligand: FMN 200 uM) 18.8 nM; under setting [1], 212 nM; (input ligand: none) 364 nM.

Consider “GGAGCCAGCACCGAGGAUAUUCAUAUUAAAACAUGAGGAUCACCCAUGUAGGCCAGAAGGCCUUGGGAGAAGGCGGACUGGCUCG [Xeonanis - 11] (puzzle: Same State 2)”, for which the “apparent KD of MS2 coat protein” value reads like this: under setting [3], 28.5 nM; under setting [2], 221 nM; under setting [4], 976 nM.

“GGAGCCGGCACUGAGGAUAUUCAUAUUAAAACAUGAGGAUCACCCAUGUAGGCCAGAAGGCCUUGGGAGAAGGCAGGCCGGCCCG [Bibimoar - 1] (puzzle: Same State 2)”: the “apparent KD of MS2 coat protein” value was 18.8 nM under setting [3], 177 nM under setting [2] and 276 nM under setting [4].

In the case of “GGAGCCGGCACUGAGGAUAUUCAUAUUAAAACAUGAGGAUCACCCAUGUAGGCCAGAAGGCCUUGGGAGAAGGCAGGUCGGCUCG [Arinin] (Eterna round: R96, puzzle: Same State 2)”, the “apparent KD of MS2 coat protein” value was 20 nM (input ligand: FMN 200 uM), 188 nM under setting [1] and 283 nM (input ligand: none).

On to “GGAGCCGGCACUGAGGAUAUUCAUAUUAAAACAUGAGGAUCACCCAUGUAGGCCAGAAGGCCUUGGGAGAAGGCAGGUCGGCUCG [salish99_ss2_r3_075] (Eterna round: R96, puzzle: Same State 2)”, for which the “apparent KD of MS2 coat protein” value is, setting by setting: (input ligand: FMN 200 uM) 20 nM; under setting [1], 188 nM; (input ligand: none) 283 nM.

Take “GGAGCCGGCACUGAGGAUAUUCAUAUUAAAACAUGAGGAUCACCCAUGUAGGCCAGAAGGCCUUGGGAGAAGGCAGGUCGGCUCG [salish99_ss2_r3_075] (puzzle: Same State 2)”: the “apparent KD of MS2 coat protein” value was 27.1 nM under setting [3], 408 nM under setting [2] and 901 nM under setting [4].

On to “GGAGCCGGCCUAGGAUAUUUCAUAAAGAAACAUGAGGAUCACCCAUGUAGGCCAGAAGGCCUUGGGAAGAAGGAGGUCGGCUCC [Loop Effect - G27] (Eterna round: R96, puzzle: Same State NG 2)”, for which the “apparent KD of MS2 coat protein” value runs as follows: (input ligand: FMN 200 uM) 12.4 nM; under setting [1], 29 nM; (input ligand: none) 28.7 nM.

Regarding “GGAGCCGGCCUAGGAUAUUUCAUAGAAAAACAUGAGGAUCACCCAUGUAGGCCAGAAGGCCUUGGGAAGAAGGAGGUCGGCUCC [Loop Effect - G25] (Eterna round: R96, puzzle: Same State NG 2)”, the “apparent KD of MS2 coat protein” value is 9.45 nM (input ligand: FMN 200 uM), 19.5 nM under setting [1] and 31.2 nM (input ligand: none).

Take “GGAGGACAUGAGGAUCACCCAUGUGGAUGAACGCUAGGAUAUGCGUGCAGGAAGAGUGGAGCAGAAGGAGUGGGUU [JR_SS1_Sub046] (puzzle: Same State 1)”: the “apparent KD of MS2 coat protein” value under setting [2] was found to be 21.7 nM.

As for “GGAUCAUGACGAGGAUAUGGUACAUGAGGAUCACCCAUGUAUGUACCACGACGGAAACGUCGAAUCCAGAAGGCGUCAUGAUCG [Mat - Same State NG 2 - JL mod - D39] (Eterna round: R96, puzzle: Same State NG 2)”, the “apparent KD of MS2 coat protein” value runs as follows: (input ligand: FMN 200 uM) 25.3 nM; under setting [1], 70.1 nM; (input ligand: none) 120 nM.

For “GGAUCGGAGGCAGGAUAUGGGCUCAGAACAUGAGGAUCACCCAUGUAAAACGGCGCAAUGCGCCACCAGAAGGGCCUCCAGUCG [Esussoed] (Eterna round: R96, puzzle: Same State NG 2)”, the “apparent KD of MS2 coat protein” value runs as follows: (input ligand: FMN 200 uM) 13.2 nM; under setting [1], 25.7 nM; (input ligand: none) 44.1 nM.

Consider “GGAUGAUUAAUAGGAUAUUAUUUGUAAUUUGGUUAAGAAGGAUUAAUGAUUUAAACGACCUGUUACAUGAGGAUCACCCAUGUU [JR_SSNG1_Sub089] (Eterna round: R96, puzzle: Same State NG 1)”, for which the “apparent KD of MS2 coat protein” value under setting [1] was 76.5 nM.

For “GGCAGGUGCAGGCUUGCUUGCACCUGGAGACAUGAGGAUCACCCAUGUUUGGGACAAGCUUUGCUCUUCGUCUUUUC [JL ViennaUCT Isusreraar mod 6] (puzzle: Sensor for hsa-mir-208a)”, the “apparent KD of MS2 coat protein” value is, setting by setting: under setting [3], 74.1 nM; under setting [2], 105 nM; under setting [4], 107 nM.

Take “GGCGAACAGGCUAACAUGAGGAUCACCCAUGUGGACUCAUGUUAGGAUAUCGGGAAGGAGGAAACCGAGAAGGGACGGUGAGCC [AK SSNG3-V2-47] (Eterna round: R96, puzzle: Same State NG 3)”: the “apparent KD of MS2 coat protein” value runs as follows: (input ligand: FMN 200 uM) 18.8 nM; under setting [1], 9.25 nM; (input ligand: none) 82.3 nM.

In the case of “GGCUAUCGGCGUACCGAUAGCUGGUAUGUACAUGAGGAUCACCCAUGUCAUGUACAGGCUUUUUGCUCGUCUUAUUG [JL-shm-2.39 JL mod] (puzzle: Sensor for hsa-mir-208a)”, the “apparent KD of MS2 coat protein” value under setting [3] came out at 134 nM, the “apparent KD of MS2 coat protein” value under setting [2] is 30.3 nM and the “apparent KD of MS2 coat protein” value under setting [4] was 149 nM.

On to “GGGCCAGCUUGUGCUGGGCCUUCGCAUGCACAUGAGGAUCACCCAUGUCGUGUACAUGCUUGGUGCCCGUCUUUCCC [Photon Torp-14] (puzzle: Sensor for hsa-mir-208a)”, for which the “apparent KD of MS2 coat protein” value was 84.5 nM under setting [3], 20.9 nM under setting [2] and 85.8 nM under setting [4].

“GGUAAACAUGAGGAUCACCCAUGUAAUAAUAUGGGAGGAUAUGGGAAUUAAUUAAUUAAACCAGAAGGCCUAAUGG [Mat - Same State 1 - D86] (puzzle: Same State 1)”: the “apparent KD of MS2 coat protein” value was 133 nM under setting [3], 424 nM under setting [2] and 628 nM under setting [4].

“GGUACUAACACAGGAUAUGCUAUCCUUUGGGUAGCAGAAGGGUGGUACAUGAGGAUCACCCAUGUGGUGCCAGGGCGUGAGCCC [JL SSNG1 1.96] (Eterna round: R96, puzzle: Same State NG 1)”: the “apparent KD of MS2 coat protein” value by setting is: (input ligand: FMN 200 uM) 408 nM; under setting [1], 538 nM; (input ligand: none) 659 nM.
